Blank lines part the entries; values can stand above or below the binder they belong to.
Tests used:
SEC = molecular target: the molecule itself; assay: SEC
[1] = molecular target: MIF-6xHis (human macrophage migration inhibitory factor, hexahistidine-tagged) (human, UniProt P14174 2-115); assay: cell-based or functional assay
[2] = molecular target: RED-NHS-MIF-6xHis (human MIF-6xHis labelled with the RED-NHS dye) (human, UniProt P14174 2-115, RED-NHS dye (chemically labeled)); assay: MST
crystal structure = molecular target: the molecule itself; assay: crystal structure

Sequence of RED-NHS-MIF-6xHis (human MIF-6xHis labelled with the RED-NHS dye) (P14174 2-115): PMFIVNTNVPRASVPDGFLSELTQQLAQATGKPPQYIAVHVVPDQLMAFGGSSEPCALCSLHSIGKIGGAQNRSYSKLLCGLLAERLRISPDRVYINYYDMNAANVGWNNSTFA
Sequence of MIF-6xHis (human macrophage migration inhibitory factor, hexahistidine-tagged) (P14174 2-115): as above

synergy in the CXCR4 yeast lacZ reporter, 10 µM MIF with 10 µM MDL2 [1]: ~3 fold over the MIF-MDL1 combination
Kd [2]: < 5 µM
B1: MDL2-6xHis (Arabidopsis thaliana MIF/D-DT-like protein 2, hexahistidine-tagged) (natural protein)
chain: PCLNLSTNVNLDGVDTSSILSEASSTVAKIIGKPENYVMIVLKGSVPMSFGGTEDPAAYGELVSIGGLNADVNKKLSAAVSAILETKLSVPKSRFFLKFYDTKGSFFGWNGATL
stoichiometry N (SEC): 3

Kd [2]: < 5 µM
B2: MDL3-6xHis (Arabidopsis thaliana MIF/D-DT-like protein 3, hexahistidine-tagged) (natural protein, UniProt F4J4H3 1-112, looked up)
chain: MPCLYITTNVNFDGVNTDPFYSEVTKAVASIVGRPQNLVMVVLKGSVEIVFGGNKEAAAYAEIVSMGGITKQVKRELIATVGSILHTHFSIHPTRFIFKVFDINSLPLPSKL
stoichiometry N (crystal structure): 3
